Data set [1] can be described thus: Calcium (Ca^2+) binding assay: fluorescence/absorbance titration of purified protein. The note with it: for Aholo/Aapo: absorbance at 569. As to the method: Calcium (Ca^2+) binding assay. 10 μM protein samples of mApple, EGFP, and mCherry variants were titrated with different concentrations of Ca^2+. Data were fitted with a 1:1 binding equation. Fluorescence intensities were collected using a Spectrofluorimeter (Photon Technology International, Inc.) and the absorbance values of Ca^2+-free and Ca^2+-loaded forms were determined using a Shimadzu UV-1601 spectrophotome.
Ca^2+ binding assay. Fluorescence measurements of mApple variants with increasing Ca^2+ concentrations were done in order to obtain the affinity of the sensor for Ca^2+ in vitro. Samples of 10 μM mApple variants with 5 μM EGTA were prepared in triplicate in 1 mL volumes in 10 mM Tris, pH 7.4. The samples were placed in quartz fluorescence cuvettes, and metal ion was titrated into each sample, in a stepwise manner, using 0.1 M and 1 M metal stock solutions. The fluorescence response of the indicator to increasing Ca^2+ concentrations was monitored using a fluorescence spectrophotometer (Photon Technology International, Canada) with the Felix32 fluorescence analysis software. The absorbance spectra before and after titration were obtained using a Shimadzu UV-1601 spectrophotometer.

Data set [2] in a line: pKa determination of the chromophore. The format is physicochemical. As to the method: pKa determination. To measure the chromophore pKa of mApple, EGFP, and mCherry variants, the proteins were prepared in buffers (sodium acetate buffer for pH 3-5, MES buffer for pH 5-6, HEPES buffer for pH 6.5-8, TRIS buffer for pH 8.5-9) covering a pH range from 3 to 10. All samples were Incubated at 4° C. overnight, then the following day, the absorbance and fluorescence spectra were collected using a Shimadzu UV-1601 spectrophotometer and the Spectrofluorimeter.

The nature of data set [3]: Quantum yield, extinction coefficient, and brightness determination. It is filed as physicochemical. The arrangement: key to Brightness: extinction coefficient × quantum yield. As for the experimental part:
Quantum yield, extinction coefficient, and brightness determination. The quantum yield values of all the variants were determined by measuring the emitted fluorescence intensities and absorbance intensities of the chromophore at different protein concentrations. The wildtype was used as a reference to calculate quantum yield. Brightness was defined as a visual perception in which a source appears to emit or reflect a given amount of light, which was obtained by multiplying the extinction coefficient and the quantum yield.

The mark [4] stands for this setting: mCherry based indicators, Ca^2+ induced fluorescence change.

B1: mCherry A145E/N196D/K198D: mCherry based indicator attempt, 4 negatively charged residues (protein)
chain: EEDNMAIIKEFMRFKVHMEGSVNGHEFEIEGEGEGRPYEGTQTAKLKVTKGGPLPFAWDILSPQFMYGSKAYVKHPADIPDYLKLSFPEGFKWERVMNFEDGGVVTVTQDSSLQDGEFIYKVKLRGTNFPSDGPVMQKKTMGWEESSERMYPEDGALKGEIKQRLKLKDGGHYDAEVKTTYKAKKPVQLPGAYNVDIDLDITSHNEDYTIVEQYERAEGRHSTGGMDELYK
On to B1, for which the Fmax/Fmin in data set [1] (setting [4]) worked out at 0.93 ± 0.02.

B2: mCherry A145E/N196D/K198D/R216E: mCherry based indicator attempt, 5 negatively charged residues (protein)
chain: EEDNMAIIKEFMRFKVHMEGSVNGHEFEIEGEGEGRPYEGTQTAKLKVTKGGPLPFAWDILSPQFMYGSKAYVKHPADIPDYLKLSFPEGFKWERVMNFEDGGVVTVTQDSSLQDGEFIYKVKLRGTNFPSDGPVMQKKTMGWEESSERMYPEDGALKGEIKQRLKLKDGGHYDAEVKTTYKAKKPVQLPGAYNVDIDLDITSHNEDYTIVEQYEEAEGRHSTGGMDELYK
Consider B2, for which, in data set [1] (setting [4]), the Fmax/Fmin came out at 1.05 ± 0.06.

B3: mApple: red fluorescent scaffold protein, SEQ ID NO: 11 (protein)
chain: EENNMAIIKEFMRFKVHMEGSVNGHEFEIEGEGEGRPYEAFQTAKLKVTKGGPLPFAWDILSPQFMYGSKVYIKHPADIPDYFKLSFPEGFRWERVMNFEDGGIIHVNQDSSLQDGVFIYKVKLRGTNFPSDGPVMQKKTMGWEASEERMYPEDGALKSEIKKRLKLKDGGHYAAEVKTTYKAKKPVQLPGAYIVDIKLDIVSHNEDYTIVEQYERAEGRHSTGGMDELYK
Take B3: the pka in data set [2] (scaffold, no apo/holo stated) stood at 6.26 ± 0.23. Also, in data set [3] (scaffold, no apo/holo stated), the Brightness was 0.37 ± 0.01, the “Extinction coefficient” value stood at 75000 M⁻¹ cm⁻¹ and the Fluorescence quantum yield was 0.49 ± 0.01. Besides, in data set [1] (EGFP and mApple variants), the Fmax/Fmin is listed as 1.02. Also, in data set [1], the Aholo/Aapo is 1.07 (569).

B4: mApple A145D/K198D/R216E: mApple variant, SEQ ID NO: 26 (protein)
chain: EENNMAIIKEFMRFKVHMEGSVNGHEFEIEGEGEGRPYEAFQTAKLKVTKGGPLPFAWDILSPQFMYGSKVYIKHPADIPDYFKLSFPEGFRWERVMNFEDGGIIHVNQDSSLQDGVFIYKVKLRGTNFPSDGPVMQKKTMGWEDSEERMYPEDGALKSEIKKRLKLKDGGHYAAEVKTTYKAKKPVQLPGAYIVDIDLDIVSHNEDYTIVEQYEEAEGRHSTGGMDELYK
On to B4, for which the Fmax/Fmin in data set [1] (EGFP and mApple variants) stood at 3.75. For the same molecule, the Aholo/Aapo in data set [1] is reported as 1.57 (569).

B5: mApple K198D/R216D: mApple variant, SEQ ID NO: 24 (protein)
chain: EENNMAIIKEFMRFKVHMEGSVNGHEFEIEGEGEGRPYEAFQTAKLKVTKGGPLPFAWDILSPQFMYGSKVYIKHPADIPDYFKLSFPEGFRWERVMNFEDGGIIHVNQDSSLQDGVFIYKVKLRGTNFPSDGPVMQKKTMGWEASEERMYPEDGALKSEIKKRLKLKDGGHYAAEVKTTYKAKKPVQLPGAYIVDIDLDIVSHNEDYTIVEQYEDAEGRHSTGGMDELYK
As for B5, the pka in data set [2] (Apo) is on record as 7.04 ± 0.11; in data set [2] (Holo), 6.56 ± 0.11. Further, the figures for the Brightness in data set [3] (Apo) and in data set [3] (Holo) were 0.15 ± 0.01 and 0.37 ± 0.01, respectively. The entries for the “Extinction coefficient” value in data set [3] (Apo) and in data set [3] (Holo) were 38000 M⁻¹ cm⁻¹ and 65000 M⁻¹ cm⁻¹, respectively. Moreover, the Fluorescence quantum yield in data set [3] (Apo) is recorded as 0.40 ± 0.01; in data set [3] (Holo) it was 0.58 ± 0.01. In addition, the Fmax/Fmin in data set [1] (EGFP and mApple variants) came out at 2.48. Moreover, in data set [1], the Aholo/Aapo was 2.21 (569).

B6: mApple A145E/E147D/K198D/R216E: mApple variant, SEQ ID NO: 27 (protein)
chain: EENNMAIIKEFMRFKVHMEGSVNGHEFEIEGEGEGRPYEAFQTAKLKVTKGGPLPFAWDILSPQFMYGSKVYIKHPADIPDYFKLSFPEGFRWERVMNFEDGGIIHVNQDSSLQDGVFIYKVKLRGTNFPSDGPVMQKKTMGWEESDERMYPEDGALKSEIKKRLKLKDGGHYAAEVKTTYKAKKPVQLPGAYIVDIDLDIVSHNEDYTIVEQYEEAEGRHSTGGMDELYK
With B6, the Fmax/Fmin in data set [1] (EGFP and mApple variants) is on record as 4.43. For the same molecule, in data set [1], the Aholo/Aapo is listed as 1.66 (569).

B7: mApple K198D: mApple variant, SEQ ID NO: 23 (protein)
chain: EENNMAIIKEFMRFKVHMEGSVNGHEFEIEGEGEGRPYEAFQTAKLKVTKGGPLPFAWDILSPQFMYGSKVYIKHPADIPDYFKLSFPEGFRWERVMNFEDGGIIHVNQDSSLQDGVFIYKVKLRGTNFPSDGPVMQKKTMGWEASEERMYPEDGALKSEIKKRLKLKDGGHYAAEVKTTYKAKKPVQLPGAYIVDIDLDIVSHNEDYTIVEQYERAEGRHSTGGMDELYK
In data set [2] (Apo), B7 yielded a pka of 6.68 ± 0.09. The molecule further displayed a pka in data set [2] (Holo) of 6.90 ± 0.12. In data set [3] (Apo), the Brightness is reported as 0.32 ± 0.01, the “Extinction coefficient” value was 59000 M⁻¹ cm⁻¹ and the Fluorescence quantum yield came out at 0.54 ± 0.01. In data set [3] (Holo), the Brightness is reported as 0.42 ± 0.03, the “Extinction coefficient” value is 69000 M⁻¹ cm⁻¹ and the Fluorescence quantum yield stood at 0.61 ± 0.03. Further, the Fmax/Fmin in data set [1] (EGFP and mApple variants) was 1.17. Further, the Aholo/Aapo in data set [1] is on record as 1.41 (569).

B8: mApple A145E/K198E/R216E: mApple variant, SEQ ID NO: 30 (protein)
chain: EENNMAIIKEFMRFKVHMEGSVNGHEFEIEGEGEGRPYEAFQTAKLKVTKGGPLPFAWDILSPQFMYGSKVYIKHPADIPDYFKLSFPEGFRWERVMNFEDGGIIHVNQDSSLQDGVFIYKVKLRGTNFPSDGPVMQKKTMGWEESEERMYPEDGALKSEIKKRLKLKDGGHYAAEVKTTYKAKKPVQLPGAYIVDIELDIVSHNEDYTIVEQYEEAEGRHSTGGMDELYK
Consider B8, for which the Fmax/Fmin in data set [1] (EGFP and mApple variants) was found to be 2.15. For the same molecule, the Aholo/Aapo in data set [1] was 1.04 (569).

B9: mApple A145E/K198D/R216E/E218D: mApple variant, SEQ ID NO: 29 (protein)
chain: EENNMAIIKEFMRFKVHMEGSVNGHEFEIEGEGEGRPYEAFQTAKLKVTKGGPLPFAWDILSPQFMYGSKVYIKHPADIPDYFKLSFPEGFRWERVMNFEDGGIIHVNQDSSLQDGVFIYKVKLRGTNFPSDGPVMQKKTMGWEESEERMYPEDGALKSEIKKRLKLKDGGHYAAEVKTTYKAKKPVQLPGAYIVDIDLDIVSHNEDYTIVEQYEEADGRHSTGGMDELYK
For B9, the Fmax/Fmin in data set [1] (EGFP and mApple variants) amounted to 2.64. For the same molecule, the Aholo/Aapo in data set [1] is 1.59 (569).

B10: mApple A145D/E147D/K198D/R216E: mApple variant, SEQ ID NO: 28 (protein)
chain: EENNMAIIKEFMRFKVHMEGSVNGHEFEIEGEGEGRPYEAFQTAKLKVTKGGPLPFAWDILSPQFMYGSKVYIKHPADIPDYFKLSFPEGFRWERVMNFEDGGIIHVNQDSSLQDGVFIYKVKLRGTNFPSDGPVMQKKTMGWEDSDERMYPEDGALKSEIKKRLKLKDGGHYAAEVKTTYKAKKPVQLPGAYIVDIDLDIVSHNEDYTIVEQYEEAEGRHSTGGMDELYK
In the case of B10, the Fmax/Fmin in data set [1] (EGFP and mApple variants) came out at 3.23. Moreover, in data set [1], the Aholo/Aapo is 1.84 (569).

Values taken from patent US20240369485A1, “FLUORESCENT SENSOR FOR MONITORING CALCIUM DYNAMICS” (priority 2021, published 2024).
